The source of these data is publication PMC5178350.

This test concerns the target Haloferax volcanii deoxyhypusine synthase (T7-His-DHS) (Haloferax volcanii). The experiment in a line: SEC; Sephacryl S-200 HR gel filtration column equilibrated with buffer A (20 mM Tris-HCl pH 8, 2 M NaCl), flow rate 0.3 mL/min; oligomer size from the estimated molecular weight.

Turning to “Haloferax volcanii deoxyhypusine synthase (T7-His-DHS) (enzyme)”, the stoichiometry N was 4.
